Source: patent US20030165527A1 (published 2003)

Biological target: T1, collagen type I from calf skin (Boehringer) (calf, UniProt P02453 162-1217; P02465 80-1117)
T1 construct: Bought preparation coated on microtiter wells
Assay: not described; control for the collagen-Fn inhibition ELISA

T1 sequence (P02453 162-1217 limits assumed, chain 1 of 2): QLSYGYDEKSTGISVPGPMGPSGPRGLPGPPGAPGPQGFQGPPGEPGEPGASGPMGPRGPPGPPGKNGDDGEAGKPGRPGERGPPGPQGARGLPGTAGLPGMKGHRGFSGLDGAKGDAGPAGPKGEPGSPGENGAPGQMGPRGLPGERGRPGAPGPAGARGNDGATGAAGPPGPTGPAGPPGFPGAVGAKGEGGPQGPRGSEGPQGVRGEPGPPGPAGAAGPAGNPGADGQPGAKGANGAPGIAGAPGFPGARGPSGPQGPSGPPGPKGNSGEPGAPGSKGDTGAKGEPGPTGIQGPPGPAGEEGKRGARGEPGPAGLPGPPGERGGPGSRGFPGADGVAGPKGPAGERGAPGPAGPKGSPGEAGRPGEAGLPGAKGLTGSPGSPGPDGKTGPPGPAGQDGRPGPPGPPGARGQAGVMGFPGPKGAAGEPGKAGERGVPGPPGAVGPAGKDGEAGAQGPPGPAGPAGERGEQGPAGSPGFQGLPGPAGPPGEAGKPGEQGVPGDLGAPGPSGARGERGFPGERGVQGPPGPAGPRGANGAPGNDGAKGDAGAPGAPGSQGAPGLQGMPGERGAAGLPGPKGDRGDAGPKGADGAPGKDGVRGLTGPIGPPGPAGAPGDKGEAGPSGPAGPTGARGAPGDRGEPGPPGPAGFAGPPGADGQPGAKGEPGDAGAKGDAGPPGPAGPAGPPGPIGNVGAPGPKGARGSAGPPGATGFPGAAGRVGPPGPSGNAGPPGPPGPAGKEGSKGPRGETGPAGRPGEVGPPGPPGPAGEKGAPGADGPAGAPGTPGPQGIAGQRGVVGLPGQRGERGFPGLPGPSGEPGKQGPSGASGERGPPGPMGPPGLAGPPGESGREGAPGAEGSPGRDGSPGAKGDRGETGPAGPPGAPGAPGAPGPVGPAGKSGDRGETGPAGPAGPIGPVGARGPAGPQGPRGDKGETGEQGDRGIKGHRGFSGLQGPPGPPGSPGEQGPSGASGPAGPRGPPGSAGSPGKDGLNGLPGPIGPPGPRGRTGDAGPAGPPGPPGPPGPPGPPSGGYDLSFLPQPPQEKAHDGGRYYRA
T1 sequence (P02465 80-1117 limits assumed, chain 2 of 2): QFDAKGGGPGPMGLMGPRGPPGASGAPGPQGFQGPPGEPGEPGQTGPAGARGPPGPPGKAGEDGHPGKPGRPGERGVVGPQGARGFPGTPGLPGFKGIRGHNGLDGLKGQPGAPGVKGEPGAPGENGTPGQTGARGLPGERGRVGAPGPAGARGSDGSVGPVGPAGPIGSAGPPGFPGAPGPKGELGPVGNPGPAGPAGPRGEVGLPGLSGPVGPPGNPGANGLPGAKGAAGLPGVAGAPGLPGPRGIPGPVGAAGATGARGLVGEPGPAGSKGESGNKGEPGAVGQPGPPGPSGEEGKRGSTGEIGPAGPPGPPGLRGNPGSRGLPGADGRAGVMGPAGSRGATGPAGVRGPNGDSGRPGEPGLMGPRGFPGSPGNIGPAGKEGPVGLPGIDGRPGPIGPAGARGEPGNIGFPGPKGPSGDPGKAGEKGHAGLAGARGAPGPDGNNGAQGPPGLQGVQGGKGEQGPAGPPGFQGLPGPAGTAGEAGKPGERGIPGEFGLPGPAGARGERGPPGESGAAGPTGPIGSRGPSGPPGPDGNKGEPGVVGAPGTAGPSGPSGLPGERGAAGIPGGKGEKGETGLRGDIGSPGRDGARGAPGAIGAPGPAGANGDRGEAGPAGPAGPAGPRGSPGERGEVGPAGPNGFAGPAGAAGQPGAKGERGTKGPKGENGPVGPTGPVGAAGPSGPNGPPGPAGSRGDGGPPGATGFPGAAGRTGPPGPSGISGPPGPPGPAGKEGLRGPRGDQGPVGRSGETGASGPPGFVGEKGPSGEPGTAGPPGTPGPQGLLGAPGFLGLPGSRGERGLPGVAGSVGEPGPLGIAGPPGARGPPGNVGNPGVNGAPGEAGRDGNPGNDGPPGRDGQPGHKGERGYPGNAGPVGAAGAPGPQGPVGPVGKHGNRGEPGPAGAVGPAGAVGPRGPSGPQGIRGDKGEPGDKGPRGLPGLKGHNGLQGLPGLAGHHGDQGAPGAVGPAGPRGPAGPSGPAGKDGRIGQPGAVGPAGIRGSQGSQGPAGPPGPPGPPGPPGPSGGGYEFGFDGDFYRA

B1: recombinant fusion protein SFS-E (mature protein SFS of Streptococcus equi subsp. equi Bd 3221 with E-tag) (other)
chain: GAALVFGGLLGSLGGSSHQARPKEQPVSSIGDDDKSHKSSSDQPTNHQHQATSPSQPTAKSSGHHGNQPQSLSVNSQGNSSGQASEPQAIPNQHHQPQGKPQHLDLGKDNSSPQPQPKPQGNSPKLPEKGLNGENQKEPEQGERGLPGLNGENQKEPEQGERGEAGPPSTPNLEGNNRKNPLKGLDGENKPKEDLDGYNHGRRDGYRVGYEDGYGGKKHKGDYPKRFDESSPKEYNDYSQGYNDNYGNGNPD
notes: PCR fragment encoding the mature SFS was cloned into pG8SAET and purified from the periplasm on an anti-E tag column; both are treated as one molecule; also called recombinant protein SFS; not shown: 13 amino acid peptide tag (E-tag) encoded by vector pG8SAET
Question: Does B1 bind?
Answer: Result: no binding
